Measured values published in the supplement of paper PMC9112550, “Optimization of the antimicrobial peptide Bac7 by deep mutational scanning” (BMC Biology, 2022).

System: Escherichia coli TOP10
Experiment: shrunken log2 fold change of peptide-encoding DNA abundance (4.5 h post-induction vs induction); higher = less antimicrobial activity (less host growth inhibition)
Conditions: time post-induction: 4.5 h; library: site-saturation at positions 5, 18, 19, 20
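Also: peptides expressed intracellularly from a pBAD plasmid library in pooled LB shake-flask culture, induced with 0.3% L-arabinose, DNA abundance read by NGS, three biological replicates, DESeq2 with apeglm shrinkage.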

## RRIRMRPPRLPRPRPRPRFKPRP
  shrunken log2 fold change: 0.498

## RRIRNRPPRLPRPRPRPTDYPRP
  shrunken log2 fold change: -0.409

## RRIRARPPRLPRPRPRPDRHPRP
  shrunken log2 fold change: 0.0379

## RRIRTRPPRLPRPRPRPTPNPRP
  shrunken log2 fold change: 0.293

## RRIRNRPPRLPRPRPRPWRCPRP
  shrunken log2 fold change: -0.0792

## RRIRYRPPRLPRPRPRPIMQPRP
  shrunken log2 fold change: -0.107

## RRIRSRPPRLPRPRPRPCDEPRP
  shrunken log2 fold change: 0.124

## RRIRGRPPRLPRPRPRPAAVPRP
  shrunken log2 fold change: 1.51

## RRIRGRPPRLPRPRPRPHVNPRP
  shrunken log2 fold change: 0.295

## RRIRERPPRLPRPRPRPVPCPRP
  shrunken log2 fold change: -0.193

## RRIRTRPPRLPRPRPRPDSDPRP
  shrunken log2 fold change: -0.65

## RRIRLRPPRLPRPRPRPTNMPRP
  shrunken log2 fold change: -0.537

## RRIRWRPPRLPRPRPRPNKSPRP
  shrunken log2 fold change: 0.0866

## RRIRIRPPRLPRPRPRPRTDPRP
  shrunken log2 fold change: -0.158

## RRIRYRPPRLPRPRPRPPNKPRP
  shrunken log2 fold change: -0.585

## RRIRMRPPRLPRPRPRPASKPRP
  shrunken log2 fold change: 0.0582

## RRIRPRPPRLPRPRPRPPQAPRP
  shrunken log2 fold change: 0.335

## RRIRFRPPRLPRPRPRPNEAPRP
  shrunken log2 fold change: -0.0305

## RRIRARPPRLPRPRPRPNRIPRP
  shrunken log2 fold change: -0.215

## RRIRARPPRLPRPRPRPDRKPRP
  shrunken log2 fold change: 0.0521

## RRIRQRPPRLPRPRPRPANQPRP
  shrunken log2 fold change: -0.091

## RRIRCRPPRLPRPRPRPETMPRP
  shrunken log2 fold change: -0.0663

## RRIRSRPPRLPRPRPRPVCYPRP
  shrunken log2 fold change: -0.268

## RRIRHRPPRLPRPRPRPSCIPRP
  shrunken log2 fold change: -0.265

## RRIRFRPPRLPRPRPRPHILPRP
  shrunken log2 fold change: -0.345

## RRIRHRPPRLPRPRPRPMHQPRP
  shrunken log2 fold change: -0.108

## RRIRHRPPRLPRPRPRPRMRPRP
  shrunken log2 fold change: 0.39

## RRIRDRPPRLPRPRPRPQIHPRP
  shrunken log2 fold change: -0.145

## RRIRPRPPRLPRPRPRPVEEPRP
  shrunken log2 fold change: 0.54

## RRIRGRPPRLPRPRPRPATAPRP
  shrunken log2 fold change: 0.979

## RRIRQRPPRLPRPRPRPFLYPRP
  shrunken log2 fold change: -0.615

## RRIRTRPPRLPRPRPRPTRFPRP
  shrunken log2 fold change: 0.463

## RRIRVRPPRLPRPRPRPTLMPRP
  shrunken log2 fold change: 0.169

## RRIRVRPPRLPRPRPRPSEIPRP
  shrunken log2 fold change: -0.623

## RRIRRRPPRLPRPRPRPAKDPRP
  shrunken log2 fold change: 0.185

## RRIRSRPPRLPRPRPRPDVQPRP
  shrunken log2 fold change: -0.147

## RRIRIRPPRLPRPRPRPNRLPRP
  shrunken log2 fold change: -0.286

## RRIRPRPPRLPRPRPRPGQVPRP
  shrunken log2 fold change: 0.11

## RRIRCRPPRLPRPRPRPISRPRP
  shrunken log2 fold change: -0.503

## RRIRDRPPRLPRPRPRPCIPPRP
  shrunken log2 fold change: -0.123

## RRIRSRPPRLPRPRPRPKYLPRP
  shrunken log2 fold change: -0.756

## RRIRSRPPRLPRPRPRPCRNPRP
  shrunken log2 fold change: -0.273

## RRIRARPPRLPRPRPRPANDPRP
  shrunken log2 fold change: 0.0448

## RRIRRRPPRLPRPRPRPNPNPRP
  shrunken log2 fold change: 0.369

## RRIRVRPPRLPRPRPRPLTGPRP
  shrunken log2 fold change: -0.396

## RRIRARPPRLPRPRPRPYGYPRP
  shrunken log2 fold change: -0.294

## RRIRPRPPRLPRPRPRPSQSPRP
  shrunken log2 fold change: -0.0693

## RRIRGRPPRLPRPRPRPFGYPRP
  shrunken log2 fold change: -0.0838

## RRIRKRPPRLPRPRPRPKTIPRP
  shrunken log2 fold change: 0.0745

## RRIRWRPPRLPRPRPRPQNDPRP
  shrunken log2 fold change: -0.0722

## RRIRCRPPRLPRPRPRPEYPPRP
  shrunken log2 fold change: 0.0734

## RRIRDRPPRLPRPRPRPVQQPRP
  shrunken log2 fold change: -0.00151

## RRIRIRPPRLPRPRPRPHIKPRP
  shrunken log2 fold change: -1.12

## RRIRERPPRLPRPRPRPMLMPRP
  shrunken log2 fold change: -0.142

## RRIRKRPPRLPRPRPRPTATPRP
  shrunken log2 fold change: 1.4

## RRIRTRPPRLPRPRPRPMRMPRP
  shrunken log2 fold change: 0.162

## RRIRMRPPRLPRPRPRPDPYPRP
  shrunken log2 fold change: -0.0396

## RRIRSRPPRLPRPRPRPQYCPRP
  shrunken log2 fold change: -0.0172

## RRIRWRPPRLPRPRPRPMSRPRP
  shrunken log2 fold change: 0.063

## RRIRDRPPRLPRPRPRPGVYPRP
  shrunken log2 fold change: 0.0379

## RRIRIRPPRLPRPRPRPALWPRP
  shrunken log2 fold change: 0.199

## RRIRKRPPRLPRPRPRPDYQPRP
  shrunken log2 fold change: -0.0353

## RRIRDRPPRLPRPRPRPAIEPRP
  shrunken log2 fold change: 0.0117

## RRIRPRPPRLPRPRPRPTYIPRP
  shrunken log2 fold change: -0.0167

## RRIRYRPPRLPRPRPRPGIIPRP
  shrunken log2 fold change: -0.0361

## RRIRGRPPRLPRPRPRPHWNPRP
  shrunken log2 fold change: -0.017

## RRIRARPPRLPRPRPRPQLYPRP
  shrunken log2 fold change: 0.0997

## RRIRYRPPRLPRPRPRPASCPRP
  shrunken log2 fold change: -0.235

## RRIRNRPPRLPRPRPRPAEFPRP
  shrunken log2 fold change: 0.0274

## RRIRYRPPRLPRPRPRPLECPRP
  shrunken log2 fold change: -0.183

## RRIRCRPPRLPRPRPRPRHLPRP
  shrunken log2 fold change: -0.302

## RRIRRRPPRLPRPRPRPWSKPRP
  shrunken log2 fold change: -0.225

## RRIRARPPRLPRPRPRPKRNPRP
  shrunken log2 fold change: 0.487

## RRIRYRPPRLPRPRPRPYSCPRP
  shrunken log2 fold change: -0.344

## RRIRYRPPRLPRPRPRPSHHPRP
  shrunken log2 fold change: -1.2

## RRIRERPPRLPRPRPRPEALPRP
  shrunken log2 fold change: 0.0535

## RRIRDRPPRLPRPRPRPGLCPRP
  shrunken log2 fold change: 0.224

## RRIRPRPPRLPRPRPRPRDSPRP
  shrunken log2 fold change: 0.334

## RRIRVRPPRLPRPRPRPMYDPRP
  shrunken log2 fold change: -0.0887

## RRIRERPPRLPRPRPRPREQPRP
  shrunken log2 fold change: -0.0138

## RRIRPRPPRLPRPRPRPSHTPRP
  shrunken log2 fold change: -0.0343

## RRIRMRPPRLPRPRPRPMMQPRP
  shrunken log2 fold change: -0.00112

## RRIRNRPPRLPRPRPRPICRPRP
  shrunken log2 fold change: -0.0024

## RRIRFRPPRLPRPRPRPWAHPRP
  shrunken log2 fold change: 0.195

## RRIRERPPRLPRPRPRPQLKPRP
  shrunken log2 fold change: -0.358

## RRIRPRPPRLPRPRPRPSENPRP
  shrunken log2 fold change: -0.0512

## RRIRARPPRLPRPRPRPWPDPRP
  shrunken log2 fold change: 0.17

## RRIRKRPPRLPRPRPRPSTGPRP
  shrunken log2 fold change: -0.284

## RRIRGRPPRLPRPRPRPADSPRP
  shrunken log2 fold change: 0.283

## RRIRERPPRLPRPRPRPFPWPRP
  shrunken log2 fold change: -0.0723

## RRIRERPPRLPRPRPRPQCKPRP
  shrunken log2 fold change: -0.276
